Source: the RNAGym collection of RNA variant scans (doi:10.7554/elife.80360)

B1: Hammerhead Ribozyme (parent)
chain: ACCGGAUGUGCUUUCCGGUCUGAUGAGUCCGUGAGGACGAAACAG

Variants of: B1
Assay: self-cleavage, relative activity (ratio to wild type); higher = more cleavage; co-transcriptional
With G35A G39C the self-cleavage was 0.346.
G35A G39A showed a self-cleavage of 0.312.
G35A G39U showed a self-cleavage of 0.328.
Work on C38A A42G yielded a self-cleavage of 0.263.
C38A A42C showed a self-cleavage of 0.326.
Variant C38A A42U has a self-cleavage of 0.283.
Work on G35U G36A yielded a self-cleavage of 0.525.
G35U G36U showed a self-cleavage of 0.463.
Work on G35U G36C yielded a self-cleavage of 0.476.
G36A G45A showed a self-cleavage of 0.444.
Work on G36A G45U yielded a self-cleavage of 0.452.
In the case of G36A G45C, the self-cleavage is reported as 0.422.
In the case of A34U G45U, the self-cleavage is reported as 0.625.
Variant A34U G45A has a self-cleavage of 0.477.
A34U G45C showed a self-cleavage of 0.533.
C38U C43A showed a self-cleavage of 0.414.
Variant C38U C43G has a self-cleavage of 0.321.
In the case of C38U C43U, the self-cleavage is reported as 0.34.
G35U A44U gave a self-cleavage of 0.338.
Variant G35U A44G has a self-cleavage of 0.943.
Work on G35U A44C yielded a self-cleavage of 0.384.
Variant A37G C38A has a self-cleavage of 0.639.
For A37G C38G, the self-cleavage was 0.79.
Variant A37G C38U has a self-cleavage of 0.534.
With C38A G45U the self-cleavage was 0.461.
C38A G45A gave a self-cleavage of 0.464.
With C38A G45C the self-cleavage was 0.344.
Variant A37G C43A has a self-cleavage of 0.332.
In the case of A37G C43U, the self-cleavage is reported as 0.33.
A37G C43G gave a self-cleavage of 0.385.
G36U C38U gave a self-cleavage of 0.674.
For G36U C38A, the self-cleavage was 0.326.
Variant G36U C38G has a self-cleavage of 0.331.
Variant G36U G45A has a self-cleavage of 0.452.
G36U G45C showed a self-cleavage of 0.454.
In the case of G36U G45U, the self-cleavage is reported as 0.441.
In the case of G35C G39C, the self-cleavage is reported as 0.365.
Variant G35C G39U has a self-cleavage of 0.307.
With G35C G39A the self-cleavage was 0.31.
With G36A G39U the self-cleavage was 0.322.
For G36A G39A, the self-cleavage was 0.337.
For G36A G39C, the self-cleavage was 0.306.
In the case of A37C C38G, the self-cleavage is reported as 0.381.
Variant A37C C38A has a self-cleavage of 0.535.
With A37C C38U the self-cleavage was 0.546.
Variant C38A A41C has a self-cleavage of 0.287.
C38A A41U showed a self-cleavage of 0.336.
For C38A A41G, the self-cleavage was 0.338.
Work on G36A A44C yielded a self-cleavage of 0.31.
For G36A A44G, the self-cleavage was 0.75.
With G36A A44U the self-cleavage was 0.332.
Work on C38A A44U yielded a self-cleavage of 0.396.
C38A A44G showed a self-cleavage of 0.862.
Work on C38A A44C yielded a self-cleavage of 0.405.
G35A A44G showed a self-cleavage of 0.837.
For G35A A44U, the self-cleavage was 0.46.
For G35A A44C, the self-cleavage was 0.42.
Work on C38G C43U yielded a self-cleavage of 0.393.
With C38G C43A the self-cleavage was 0.456.
With C38G C43G the self-cleavage was 0.288.
Variant G35A A37U has a self-cleavage of 0.414.
G35A A37G showed a self-cleavage of 0.58.
G35A A37C gave a self-cleavage of 0.364.
For G39A, the self-cleavage was 0.347.
With A37U C38A the self-cleavage was 0.693.
With A37U C38G the self-cleavage was 0.384.
Work on A37U C38U yielded a self-cleavage of 0.714.
G35U C43U showed a self-cleavage of 0.43.
For G35U C43A, the self-cleavage was 0.378.
With G35U C43G the self-cleavage was 0.34.
For C38G A40C, the self-cleavage was 0.211.
In the case of C38G A40G, the self-cleavage is reported as 0.357.
C38G A40U gave a self-cleavage of 0.301.
Variant A37G A41C has a self-cleavage of 0.358.
With A37G A41U the self-cleavage was 0.378.
Work on A37G A41G yielded a self-cleavage of 0.268.
In the case of G36A A41U, the self-cleavage is reported as 0.279.
Variant G36A A41C has a self-cleavage of 0.382.
Work on G36A A41G yielded a self-cleavage of 0.344.
Work on G35U G39C yielded a self-cleavage of 0.344.
G35U G39U gave a self-cleavage of 0.42.
G35U G39A gave a self-cleavage of 0.331.
In the case of G35U, the self-cleavage is reported as 0.817.
G35A showed a self-cleavage of 0.798.
Work on G35C yielded a self-cleavage of 0.791.
With A37U A44G the self-cleavage was 0.801.
With A37U A44C the self-cleavage was 0.306.
In the case of A37U A44U, the self-cleavage is reported as 0.417.
G36U A37C gave a self-cleavage of 0.331.
With G36U A37G the self-cleavage was 0.479.
In the case of G36U A37U, the self-cleavage is reported as 0.724.
With G35C C43G the self-cleavage was 0.325.
G35C C43A showed a self-cleavage of 0.352.
For G35C C43U, the self-cleavage was 0.387.
For G36A, the self-cleavage was 0.733.
G36C showed a self-cleavage of 0.52.
Work on G36U yielded a self-cleavage of 0.625.
G35U G45C gave a self-cleavage of 0.466.
Work on G35U G45A yielded a self-cleavage of 0.473.
Variant G35U G45U has a self-cleavage of 0.421.
In the case of A37U, the self-cleavage is reported as 0.799.
Work on A37G yielded a self-cleavage of 0.886.
With A37C the self-cleavage was 1.
G36U A42C showed a self-cleavage of 0.37.
G36U A42G gave a self-cleavage of 0.316.
Work on G36U A42U yielded a self-cleavage of 0.329.
With C38G G45C the self-cleavage was 0.491.
Work on C38G G45A yielded a self-cleavage of 0.461.
With C38G G45U the self-cleavage was 0.562.
Variant A37C G45U has a self-cleavage of 0.636.
In the case of A37C G45C, the self-cleavage is reported as 0.337.
A37C G45A showed a self-cleavage of 0.404.
In the case of G35C A37G, the self-cleavage is reported as 0.563.
Work on G35C A37C yielded a self-cleavage of 0.504.
With G35C A37U the self-cleavage was 0.517.
Variant G36C G39U has a self-cleavage of 0.325.
G36C G39A gave a self-cleavage of 0.29.
In the case of G36C G39C, the self-cleavage is reported as 0.335.
Variant A37U G39U has a self-cleavage of 0.362.
In the case of A37U G39C, the self-cleavage is reported as 0.326.
For A37U G39A, the self-cleavage was 0.386.
In the case of A37G G39C, the self-cleavage is reported as 0.371.
With A37G G39A the self-cleavage was 0.362.
A37G G39U gave a self-cleavage of 0.307.
A37U G45C showed a self-cleavage of 0.363.
Work on A37U G45A yielded a self-cleavage of 0.468.
Work on A37U G45U yielded a self-cleavage of 0.48.
In the case of G35A G45C, the self-cleavage is reported as 0.437.
Work on G35A G45A yielded a self-cleavage of 0.452.
In the case of G35A G45U, the self-cleavage is reported as 0.471.
G35C A42U gave a self-cleavage of 0.324.
G35C A42G showed a self-cleavage of 0.26.
With G35C A42C the self-cleavage was 0.283.
In the case of G35C G45U, the self-cleavage is reported as 0.498.
G35C G45A gave a self-cleavage of 0.385.
Variant G35C G45C has a self-cleavage of 0.395.
With C38U A40C the self-cleavage was 0.598.
C38U A40U showed a self-cleavage of 0.348.
Work on C38U A40G yielded a self-cleavage of 0.37.
With A37U A42G the self-cleavage was 0.271.
Variant A37U A42U has a self-cleavage of 0.327.
For A37U A42C, the self-cleavage was 0.304.
G36C A37G gave a self-cleavage of 0.748.
In the case of G36C A37U, the self-cleavage is reported as 0.29.
Work on G36C A37C yielded a self-cleavage of 0.296.
Work on A37C A44G yielded a self-cleavage of 0.77.
Variant A37C A44U has a self-cleavage of 0.368.
For A37C A44C, the self-cleavage was 0.28.
With G36A A42U the self-cleavage was 0.333.
For G36A A42G, the self-cleavage was 0.25.
Work on G36A A42C yielded a self-cleavage of 0.287.
For C38G G39U, the self-cleavage was 0.402.
C38G G39A gave a self-cleavage of 0.285.
In the case of C38G G39C, the self-cleavage is reported as 0.326.
C38U A42U gave a self-cleavage of 0.317.
C38U A42C gave a self-cleavage of 0.396.
Work on C38U A42G yielded a self-cleavage of 0.34.
Variant A37G A42C has a self-cleavage of 0.342.
In the case of A37G A42U, the self-cleavage is reported as 0.32.
In the case of A37G A42G, the self-cleavage is reported as 0.264.
In the case of G35A G36U, the self-cleavage is reported as 0.427.
With G35A G36A the self-cleavage was 0.508.
In the case of G35A G36C, the self-cleavage is reported as 0.484.
Variant G36U A41G has a self-cleavage of 0.391.
Variant G36U A41C has a self-cleavage of 0.309.
In the case of G36U A41U, the self-cleavage is reported as 0.372.
Work on G36C C43G yielded a self-cleavage of 0.286.
